These results are taken from patent publication US10172951B2, “Dendrimer based nanodevices for therapeutic and imaging purposes” (priority 2009, dated 2019).

“And” between values parts separate entries of the source, which are not always exact repeats. Equal values may be shown once.

Data set [1] can be described thus: Transmembrane transport and permeability, chorion. Format: in vitro ADME, human. An excerpt:
(§1) All human fetal membrane specimens were obtained at the time of cesarean section for obstetrical indications. The fetal membrane comprising chorioamniotic membrane (intact membranous tissue containing both amnion and chorion together) (n=7) and amnion (n=7) and chorion (n=7) were separately procured (size 6×9″). Each membrane was cut into 9 pieces for the 9 sets of diffusion chamber. The fresh membranes were collected immediately after the delivery, washed with PBS to remove the blood and stored in PBS until (˜1 h at 4° C.) it was mounted on the diffusion chamber (37±0.5° C.). Excess membranes were trimmed. The diffusion experiments were performed for 48 hours by mounting the membrane in the chamber to study the transport across the membranes. In all the experiments with chorioamniotic membrane the choriodecidua (maternal side) was placed facing the donor chamber and the amnionic epithelium (fetal side) was facing the receptor chamber. The chorion and amnion were mechanically separated by gently pulling the two membranes apart. For the chorion, the side attached to amnion was placed facing the receptor chamber and for the amnion the side attached to the chorion was placed facing the donor chamber in the diffusion apparatus. For histological evaluation, the tissue samples were collected at 0.5, 1, 2, 3 and 4 hours for and were fixed in 10% formalin overnight. Further, some sections were analyzed by hematoxylin and eosin (H & E) staining. The membrane thickness was measured using the Mitutoyo Super Caliper by placing the respective membranes between the two glass slides and subtracting the thickness of the glass slides without the membrane.
(§2) Permeation experiments were carried out using a two-chamber (donor and receptor) side-by-side Permegear diffusion cell with a chamber volume of 3 mL and with a diameter of 13 mm and a diffusional area of 1.32 cm^2. The fetal membranes (chorion and amnion together, amnion and chorion) each (n=9) were mounted between two halves of the donor and receptor cell (9 sets), which were further clamped together and sealed tightly with the rubber packing at the end of each glass chamber. The receptor cell (volume 3 mL) was filled with sterile PBS (pH 7.4). The donor cell (volume 3 mL) was filled with solution of compounds whose permeability was evaluated. […] The system was maintained at 37° C. by using a circulating water bath and a jacket surrounding each cell. The donor and receiving medium was continuously stirred (600 rpm) with a magnetic bar to avoid stagnant aqueous diffusion layer effects. Aliquots (200 μL) were collected from the receptor cell every 30 min till first 6 hours and at predetermined intervals thereafter and replaced with equal volume of PBS to maintain sink conditions throughout the study. […] The concentration of compound in the receptor medium was determined using a Molecular Devices SpectroMax M2, UV visible and Fluorescent plate reader at ex 495/em 521. The cumulative amount of compound transported across the membrane in the receptor cell was determined using a calibration curve (a transport of 50% corresponds equilibrium achieved). All the experiments were conducted in dark room. All experiments were done in triplicate and the results are reported as mean±STDev.
(§3) [formula] […] The thickness of the chorioamnion, chorion and amnion was 0.22 mm, 0.16 mm and 0.05 mm respectively (n=7), as measured with the help of Mitutoyo Super Caliper. […]

The nature of data set [2]: Stability of fluorophore-dendrimer conjugates in PBS (HPLC). Format: physicochemical. The note with it: PBS (pH 7.4), after 72 hours. An excerpt:
The FITC-labeled compound (G4-PAMAM-O-GABA-NH-FITC) was purified by dialysis (membrane cutoff 1000 Da) against DMSO in dark by replacing DMSO, to remove un-reacted compounds. Purity of G4-PAMAM-O-GABA-NH-FITC conjugate was confirmed by HPLC using fluorescent detector (λex=495 nm/λem=521 nm).
G4-PAMAM-O-GABA-NH2 dendrimer was reacted with the Alexa 488 carboxylic acid succinimidyl ester (Scheme-6). The N-succinimidyl activated ester of Alexa 488 couples to the terminal primary amines to yield amide-linked G4-PAMAM-O-GABA-Alexa conjugate. The formation of conjugate was confirmed by HPLC (FIG. 89) using florescent detector (λex=495 nm/λem=521 nm). […] The absence of any other peak in chromatogram after dialysis of product confirms the absence of free alexa. […] The dendrimer alexa conjugate was prepared for enhanced histological visualization of samples as confocal imaging causes quenching and also to match with the intensities of other alexa conjugated secondary antibodies.

Data set [3] is described as follows: Transmembrane transport and permeability, chorioamnion. Format: in vitro ADME, human.
Source text: as §1
Permeation experiments were carried out using a two-chamber (donor and receptor) side-by-side Permegear diffusion cell with a chamber volume of 3 mL and with a diameter of 13 mm and a diffusional area of 1.32 cm^2. The fetal membranes (chorion and amnion together, amnion and chorion) each (n=9) were mounted between two halves of the donor and receptor cell (9 sets), which were further clamped together and sealed tightly with the rubber packing at the end of each glass chamber. […] The donor cell (volume 3 mL) was filled with solution of compounds whose permeability was evaluated. […] The concentration of compound in the receptor medium was determined using a Molecular Devices SpectroMax M2, UV visible and Fluorescent plate reader at ex 495/em 521. The cumulative amount of compound transported across the membrane in the receptor cell was determined using a calibration curve (a transport of 50% corresponds equilibrium achieved). […]
as §3

Data set [4] in a line: Transmembrane transport and permeability, amnion. Format: in vitro ADME, human.
Source text: as §1, §2
[formula] To determine the permeability coefficient, P, a plot of −V/2A ln (1−2Ct/C0) against t was constructed and linear fitting was performed. The slope of the linear portion of the graph yields a permeability coefficient. The thickness of the chorioamnion, chorion and amnion was 0.22 mm, 0.16 mm and 0.05 mm respectively (n=7), as measured with the help of Mitutoyo Super Caliper. […] The FIGS. 93A-C and FIG. 94 show the plots used for calculation of the permeability and the correlation in all the cases ranged from 0.96 to 0.99.

The nature of data set [5]: Dynamic light scattering size. Format: physicochemical. The note with it: PBS pH 7.4, 37° C. Here is the method:
Dynamic light scattering (DLS) analyses were performed using a Malvern Instruments Zetasizer Nano ZEN3600 instrument (Westborough, Mass.) with reproducibility being verified by collection and comparison of sequential measurements. G4-PAMAM-O-GABA-NH-FITC and G4-PAMAM-O-GABA-NH-Alexa conjugate samples were prepared using PBS pH=7.4. DLS measurements were performed at a 90° scattering angle at 37° C. Z-average sizes of three sequential measurements were collected and analyzed.

In the case of G4-PAMAM-O-GABA-NH-FITC [D-FITC], the “Permeability coefficient, Chorion” value in data set [1] (0.6 mg/mL) and in data set [1] (3 mg/mL) was 2.94×10^−8 cm^2/s in each case. Also, the transport across chorion in data set [1] (in 5 hours) was not above 3%; in data set [1] (in 20 hours, 0.6 mg/mL, listed as G4-PAMAM dendrimer), 10% and ~10.5%. In data set [2], the “stability of the conjugate” value is reported as “FITC was not released from the conjugate”. Moreover, the “Permeability coefficient, Chorioamnion” value is 7.5×10^−8 cm^2/s in data set [3] (0.6 mg/mL) and 5.8×10^−8 cm^2/s in data set [3] (3 mg/mL). Besides, in data set [3] (in 5 hours), the transport across chorioamnion was not above 3%. Further, the “Permeability coefficient, Amnion” value is 1.86×10^−8 cm^2/s in data set [4] (0.6 mg/mL) and 2.08×10^−7 cm^2/s in data set [4] (3 mg/mL). Also, the transport across amnion was not above 3% in data set [4] (in 5 hours) and 22% in data set [4] (in 20 hours, 0.6 mg/mL). In addition, the “size (DLS)” value in data set [5] was determined as 5.4 nm.
